# Data published in patent US20260258115A1 (MAPP BIOPHARMACEUTICAL, published 2026).
# Legend:
# [1] = biological target: T1, RSV F on RSV subtype A virus (RSV-A2) (Respiratory Syncytial Virus, subtype A, …, UniProt P03420 26-574); assay: cell-based or functional assay
# [2] = biological target: T2, RSV prefusion F (preF), DS-Cav1 stabilized trimer, subtype A (Respiratory Syncytial Virus, subtype A, UniProt P03420 26-513); assay: BLI, IgG on anti-human IgG sensors, 100 nM antigen, apparent KD
# [3] = biological target: T3, RSV postfusion F (postF), F ΔFP trimer, subtype A (Respiratory Syncytial Virus, subtype A, UniProt P03420 26-513); assay: as above
# [4] = biological target: T1, RSV F on RSV subtype A virus (RSV-A2); assay: cell-based or functional assay; remark: listed apart in the source
# [5] = biological target: RSV F on RSV subtype B virus (mKate-RSV B 18537) (Respiratory Syncytial Virus, subtype B, …, UniProt P13843 26-574); assay: cell-based or functional assay
# [6] = biological target: T3, RSV postfusion F (postF), F ΔFP trimer, …; assay: BLI, IgG (Table 9A)
# [7] = biological target: T2, RSV prefusion F (preF), DS-Cav1 …; assay: BLI, apparent IgG KD (Table 9A)
# [8] = biological target: RSV prefusion F (preF), DS-Cav1 (respiratory syncytial virus, UniProt P03420 26-513); assay: BLI, IgG on sensor
# [9] = biological target: RSV fusion glycoprotein (RSV F) on RSV-A2 virus (respiratory syncytial virus, UniProt P03420 26-574); assay: cell-based or functional assay
# [10] = biological target: RSV postfusion F (postF), F deltaFP (respiratory syncytial virus, UniProt P03420 26-513); assay: BLI, IgG on sensor, 100 nM antigen
binder,measurement,setting,value
"ADI-41814 (antibody, V domains shown, also called Ab 921; Antibody Number 921) VH: EVQLLESGPTLVKPTQTLTLTCTFSGFSLSTFGVGVGWIRQPPGKALECLALIYWDDDKRYSPSLKSRLTITRDTSKNQVVLTMTNMDPVDTATYYCAHRRSSTVTTGFFDYWGRGTLVTVSS VL: QPVLTQPPSVSGAPGQRVTVSCTGNSSNIGAGHGAHWYQQLPGTAPKLLIYGSTDRPSGVPDRFFGSQSGTSASLVITELRAEDEADYYCQSFDSSLSIWVFGGGTKLTVL",Neutralization IC50 (RSV subtype A),[1],> 25 µg/mL
same,Kd,[2],3390 pM
same,Kd,[3],915 pM
"ADI-41817 (antibody, V domains shown) VH: QVQLVQSGAEVKKPGESLKISCKGPGYSFTTYWIGWVRQMPGKGLEWMGIIYPGDSDTKYSPSFQGQVTITADKSIATAYLQWSRLKASDTAVYYCATVVTYADNIRWFDSWGQGTLVTVSS VL: QSALTQPASVSGSPGQSITISCTGTSGDVGGYKFVSWYQHHPGKAPKLVIYDVANRPSGVSDRFSGSKSGTTASLTISGLQAEDEADYYCSSYTSSSTYVFGTGTKVTAL",Neutralization IC50 (RSV subtype A),[1],> 25 µg/mL
same,Kd,[2],6940 pM
same,Kd,[3],15800 pM
"ADI-41818 (antibody, V domains shown) VH: EVQLVESGGGLVQPGGSLRLSCAASGFTVNTNYMSWVRQAPGKGLEWVSIIYSSGSTSYADSVKGRFTISRDNSENTLYLQMHTLRAEDTAVYYCVRERTPFYYVSSGYWDSWGQGTLVTVSS VL: EIVLTQSPGTLSLSPGERATLSCRASQSVDSSYLAWYQQKPGQAPRLLIFGASSRATGIPDRFSGSGSGTDFTLTISRLEPEDFAVYYCQQYGFSYTFGQGTKVEIK",Neutralization IC50 (RSV subtype A),[1],> 25 µg/mL
same,Kd,[2],676 pM
same,Kd,[3],347 pM
"ADI-41841 (antibody, V domains shown) VH: EVQLLESGGGLVKPGGSLRLSCAASGFSFSYYSMNWVRQTPGKGLEWVSSISDRSSYISYADSVKGRFTISRDNAKNSLYLQMNSLRAEDTAVYYCARDQYESYAFDIWGQGTTVTVSS VL: DIQVTQSPSSLSASVGDRITITCQASQDVGNYLNWYQQKVGKAPKLLIHDASDLETGVPSRFSGSGSGTYFTFTISSLQPEDFATYYCQPYDNLRPVTFGQGTRLEIK",Neutralization IC50 (RSV subtype A),[1],0.04 µg/mL
same,Kd,[2],121 pM
same,Kd,[3],265 pM
"ADI-41842 (antibody, V domains shown, also called Ab 942; Antibody Number 942) VH: QVQLVQSGAEVKKPGASVRVSCKASGYTFTHYDINWVRQAPGQGLEWMGWINPNSGDTDYAQKFQGRVTMTVDTSISTAYLDLRSLTSADAAVYYCARGGAYATNGYYIIWFDPWGQGTLVTVSS VL: DIVVTQSPSSLSASVGDRVTITCRASQSISRYLNWFQKKPGKAPHLLIYAASILQSEVPSRFSGSGSGTDFTLTISSLQPEDFATYYCQQSYNSPYTFGPGTKVDIK",Neutralization IC50 (RSV subtype A),[1],> 25 µg/mL
same,Kd,[2],717 pM
same,Kd,[3],442 pM
"ADI-14334 (antibody, V domains shown) VH: EVQLVESGGGLVKPGGSLRLSCAASGVTVSSYYMTWVRQAPGKGLEFISDISSSSTYTNYADSVKGRFTISRDNAKSSLYLQMNNLRAEDTAVYYCARLGITVTGVGYFDLWGRGTLVTVSS VL: QPGLTQPPSVSGAPGQRVTISCTGSSSNIGAGYDVHWYQQLPGTAPKLLIHDNNNRPSGVPDRFSGSKSGTSASLAITGLQVEDEADYYCQSYDSSLSNYVFGTGTKLTVL",Neutralization - RSV A2 IC50 (pM),[4],189 pM
same,neut IC50 (ug/ml) subtype A (graham),[4],0.05 µg/mL
same,neut IC50 (ug/ml) subtype B (graham),[5],0.11 µg/mL
"ADI-14583 (antibody, V domains shown) VH: QVQLVQSGAEVKEPGASVKVSCKASGYTFTNYGISWVRQAPGQGLEWLGWISAYNGNIHYAQKVQGRVTMTTDTSTSTGFMELRSLRSDDTAVYYCAREPPVIAAGDFQHWGQGTLVTVSS VL: ETTLTQSPLSLPVTLGQPASISCRSSQSLVHSNGNTYLSWFQQRPGQSPRRLIYRVSNRDSGVPDRFSGSGSGTDFTLKISRVEAEDVGLYYCMQGTHWPPDFGQGTRLEIK",Neutralization - RSV A2 IC50 (pM),[4],125 pM
same,neut IC50 (ug/ml) subtype A (graham),[4],0.05 µg/mL
same,neut IC50 (ug/ml) subtype B (graham),[5],0.06 µg/mL
"ADI-20964 (antibody, V domains shown) VH: QVQLVQSGAEVKKPGASVKVSCKASGYTFTHYGISWVRQAPGQGLEWMGWISAYNGNTNYAQKLQGRVTMTTDTSTSTAYMEVRSLRYDDTAVYYCARDVPVEAATSPEFWGQGTLVTVSS VL: DIVMTQTPLSLPVTLGQPASISCRSSQSLVYSDGNTYLSWFQQRPGQSPRRLIYKVSNRDSGVPNRFSGSGSGTDFTLKISRVEAEDVGVYYCVQNTHWPAYTFGQGTKVEIK",binding result,[6],no binding
same,Neutralization - RSV A2 IC50 (pM),[4],162 pM
same,neut IC50 (ug/ml) subtype A (graham),[4],0.06 µg/mL
same,neut IC50 (ug/ml) subtype B (graham),[5],0.14 µg/mL
same,Kd,[7],360 pM
"ADI-20974 (antibody, V domains shown) VH: EVQLVESGGGLVKPGGSLRLSCAASGFSFSSYQINWVRQAPGKGLEWVSSISGGSSYTDYADSIKGRFTISRDNAKKSAFLQMKSLRADDTAVYYCARALMATAGGLAFDIWGQGTMVTVSS VL: QPVLTQPPSVSGAPGQRVTISCTGSGSNIGAGYDVHWYQQVPGTAPKLLILRNTNRPSGVPDRFSGSKSGTSASLAITGLQAEDEADYYCQSYDRSLSVVFGGGTKLTVL",binding result,[6],no binding
same,Neutralization - RSV A2 IC50 (pM),[4],75.4 pM
same,neut IC50 (ug/ml) subtype A (graham),[4],0.003 µg/mL
same,neut IC50 (ug/ml) subtype B (graham),[5],0.09 µg/mL
same,Kd,[7],290 pM
"ADI-20998 (antibody, V domains shown) VH: QVQLVQSGGGVVQPGRSLRLSCAASGFTLSTYGMHWVRQAPGKGLEWVAVIYYDESNKFYADSVQGRFTISRDDSKNTLFLQMNSLRAEDTAVYYCARESRPRGYSYSDFDSWGQGTLVTVSS VL: QPGLTQPRSVSGSPGQSVTISCTGTSSDVGTFNYVSWYQQHPGKAPKLMIYDVNQRPSGVPDRFSGSKSGNTASLTISGLQAEDEADYYCCAYAGYYSFGGGTKLTVL",Neutralization - RSV A2 IC50 (pM),[4],74 pM
same,neut IC50 (ug/ml) subtype A (graham),[4],0.03 µg/mL
same,neut IC50 (ug/ml) subtype B (graham),[5],> 25 µg/mL
"ADI-41350 (antibody, V domains shown, IgG1) VH: EVQLVESGAGLVQPGGSLRLSCAASGFTFSTYAVSWVRQAPGKGLEWVSAISGSGASTYFADSVKGRFTISRDNSKNTLYLQMNSLRAEDTAVYYCAKARLELRPYYYGMDVWGQGTTVTVSS VL: QPVLTQPASVSGSPGQSITISCTGTSSDVGGYNFVSWYQQHPGKAPKLIIYEVSNRPSGVSNRFSGSKSGNTASLTISGLQAEDEADYYCSSSTLSTTYVFGTGTKVTVL",binding result,[8],no binding (tested: 100 nM antigen)
same,Neutralization IC50 (RSV subtype A),[9],> 25 µg/mL
same,Kd,[10],602 pM
"ADI-41361 (antibody, V domains shown, IgG1; also called Ab 658) VH: QVQLQESGGGVVQPGRSLRLSCAASGFAFSDYAMDWVRQAPGKGLEWVAVISFDGSNKFYADSVKGRFTISRDNSENTLFLQMNSLRAEDTAVYYCVRDFVPCSGATCYLPPVYWGRGTLVTVSS VL: EIVLTQSPATLSVSPGERATLSCRASQSVSSDLAWYQQKPGQAPRLLIYGASTRATGIPARFSGSGSGTEFTLTISRLQSEDFAVYFCQQYNNWPSWTFGQGTKVEIK",binding result,[8],no binding (tested: 100 nM antigen)
same,Neutralization IC50 (RSV subtype A),[9],2.54 µg/mL
same,Kd,[10],383 pM
"ADI-41379 (antibody, V domains shown, IgG1) VH: QVQLVQSGAEVKKPGESLKISCKGSGYSFSSFWIGWVRQMPGKGLEWMGIIYPGDSDTRYSPSFKGQVTISADTSISTAYLQWSSLKASDTAMYYCAKSIVGSTGSFDPWGQGTLVTVSS VL: DIQMTQSPSSLSASVGDRVTITCQASQDISNFLNWYQQKPGKAPKLLIYDASNLRTGVPSRFSGSGSGTEFTFTISSLQPEDIATYYCQQYHDLPPLTFGGGTKVDIK",binding result,[8],no binding (tested: 100 nM antigen)
same,Neutralization IC50 (RSV subtype A),[9],> 25 µg/mL
same,Kd,[10],1110 pM
"ADI-41400 (antibody, V domains shown, IgG1; also called Ab 693) VH: EVQLLESGGGLIQPGGSLRLSCAASKFTFSDYEMNWVRQAPGKGLEWLSYISSSGGIMYYADSVKGRFTISRDNAKNSLYLQMNSLRAEDTAVYFCARAGRLLSGLDVWGHGTTVTVSS VL: EIVLTQSPSTLSASVGDRVTITCRASQSISPWLAWYQQKPGKAPKLLIYRASSLETGVPPRFSGSGSGTEFTLTISSLQPDDFATYYCQHYNSYLYSFGQGTKVEIK",binding result,[8],no binding (tested: 100 nM antigen)
same,Neutralization IC50 (RSV subtype A),[9],> 25 µg/mL
same,Kd,[10],547 pM
"ADI-41406 (antibody, V domains shown, IgG1; also called Ab 698) VH: EVQLVESGGNLVQPGGSLRLSCAASGFTFSSYVMNWVRQAPGKGLEWVSGISGSGGTSYYADSVKGRFTISRDNSNNTLYLQMKSLRAEDTAVYYCAKDPRFQKWLIEGTNWFDSWGQGTLVTVSS VL: DIQVTQSPSSLSASVGDRVTITCRASQDVSNYLAWFQQKPGTAPKSLIYAASILQSGVPSKFRGSGSGTDFSLTISSLQPEDFATYYCQQYRSFPPTFGGGTKVEIK",binding result,[8],no binding (tested: 100 nM antigen)
same,Neutralization IC50 (RSV subtype A),[9],> 25 µg/mL
same,Kd,[10],571 pM
"ADI-41420 (antibody, V domains shown, IgG1) VH: not shown VL: QPVLTQPPSVSGSPGQSVTISCTGTSSDVGSYNRVSWYQQPPGTAPKLMIYEVSNRPSGVPDRFSGSKSGNTASLTISGLQAEDEADYYCSSYTSSSPVFGGGTKVTVL",binding result,[8],no binding (tested: 100 nM antigen)
same,Neutralization IC50 (RSV subtype A),[9],> 25 µg/mL
same,Kd,[10],110000 pM
